The values that follow come from US20170176432A1 (OSAKA UNIVERSITY, published 2017).

Experiment [1] addresses T1, human thyroglobulin (TG) (human, UniProt P01266 20-2768).
T1 construct: whole, on cells; the tag is not described
As to the kind of experiment: flow cytometry of surface TG (anti-histidine antibody) on 293T; HLA-DRB1*01:03. On the technique in general: A flow cytometer gives signals particle by particle.

Experiment [2] deals with T2, human β2-glycoprotein I (β2-GPI) (human, UniProt P02749 20-345).
T2 construct: whole, on cells
T2 sequence (looked up): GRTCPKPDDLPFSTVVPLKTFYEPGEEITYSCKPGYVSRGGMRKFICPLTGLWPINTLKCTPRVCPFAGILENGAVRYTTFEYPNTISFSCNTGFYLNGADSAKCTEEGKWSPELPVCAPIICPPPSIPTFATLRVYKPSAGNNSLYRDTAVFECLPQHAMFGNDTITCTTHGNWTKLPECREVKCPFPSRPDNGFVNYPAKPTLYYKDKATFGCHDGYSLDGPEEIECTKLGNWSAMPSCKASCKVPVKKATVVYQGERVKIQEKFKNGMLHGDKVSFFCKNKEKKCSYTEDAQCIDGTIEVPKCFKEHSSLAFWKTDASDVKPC
The experiment is described as follows: flow cytometry of surface β2-GPI on 293T; HLA-DRB1*01:03.

The target of experiment [3] is T2, human β2-glycoprotein I (β2-GPI). The experiment is described as follows: flow cytometry of surface β2-GPI on 293T; HLA-DRB1*13:02.
Experiment [4] has the same target. The experiment is described as follows: flow cytometry of surface β2-GPI on 293T; HLA-DRB1*04:01.
Experiment [5] shares this target. As to the kind of experiment: flow cytometry of surface β2-GPI on 293T; HLA-DRB1*09:01.
For experiment [6] the target is unchanged. As to the kind of experiment: flow cytometry of surface β2-GPI on 293T; HLA-DRB1*14:01.
Experiment [7] shares this target. The experiment is described as follows: flow cytometry of surface β2-GPI on 293T; HLA-DRB1*14:02.
For experiment [8] the target is unchanged. As to the kind of experiment: flow cytometry of surface β2-GPI on 293T; HLA-DRB1*01:01.
The target is the same in experiment [9]. The experiment is described as follows: flow cytometry of surface β2-GPI on 293T cells (β2-GPI+HLA-DR4). The protocol:
The HLA-DRA*01:01 vector as an α-chain expression vector, the HLA-DRB1*04:04 vector as a β-chain expression vector, the β2-GPI vector, and the GFP vector were introduced to 293T cells, and the 293T cells were cultured. The cultured cells were reacted with an anti-β2-GPI antibody or an anti-cardiolipin antibody (aCL), and further reacted with the APC-labeled anti-human IgG antibody. Then, GFP-positive cells were subjected to flow cytometry analysis in the same manner as in Example 1A. As Control 1, the analysis was performed in the same manner, except that only the β2-GPI expression vector was introduced. As Control 2, the analysis was performed in the same manner, except that only the GFP vector was introduced. [0219] anti-β2-GPI antibody: polyclonal antibody, available from Atlas antibodies [0220] human anti-cardiolipin antibody: Clone EY2C9, supplied by Professor Atsumi, School of Medicine in Hokkaido University. Reference was made to the following paper: Ichikawa, K., M. A. Khamashta, T. Koike, E. Matsuura, and G. R. V. Hughes. 1994. P2-Glycoprotein I reactivity of monoclonal anticardiolipin antibodies from patients with the antiphospholipid syndrome. Arthritis Rheum. 37: 1453.

For experiment [10] the target is unchanged. The experiment is described as follows: flow cytometry of surface β2-GPI on 293T; HLA-DRB1*13:03.
Experiment [11] shares this target. The experiment is described as follows: flow cytometry of surface β2-GPI on 293T; HLA-DRB1*14:06.
Experiment [12] has the same target. As to the kind of experiment: flow cytometry of surface β2-GPI on 293T; HLA-DRB1*08:01.
The target is the same in experiment [13]. The experiment is described as follows: flow cytometry of surface β2-GPI on 293T; HLA-DRB1*11:01.
Experiment [14] shares this target. As to the kind of experiment: flow cytometry of surface β2-GPI on 293T; HLA-DRB1*03:01.
Experiment [15] has the same target. The experiment is described as follows: flow cytometry of surface β2-GPI on 293T; HLA-DRB1*12:01.
For experiment [16] the target is unchanged. The experiment is described as follows: flow cytometry of surface β2-GPI on 293T; HLA-DRB1*08:03.
Experiment [17] has as its target T1, human thyroglobulin (TG). The experiment is described as follows: flow cytometry of surface TG (anti-histidine antibody) on 293T; HLA-DRB1*14:03.
Experiment [18] addresses T2, human β2-glycoprotein I (β2-GPI). The experiment is described as follows: flow cytometry of surface β2-GPI on 293T; HLA-DRB1*14:03.
The target is the same in experiment [19]. As to the kind of experiment: flow cytometry of surface β2-GPI on 293T; HLA-DRB1*04:03.
For experiment [20] the target is unchanged. The experiment is described as follows: flow cytometry of surface β2-GPI on 293T; HLA-DRB1*10:01.
Experiment [21] has the same target. As to the kind of experiment: flow cytometry of surface β2-GPI on 293T; HLA-DRB1*04:05.
For experiment [22] the target is unchanged. The experiment is described as follows: flow cytometry of surface β2-GPI on 293T; HLA-DRB1*13:01.
Experiment [23] has the same target. The experiment is described as follows: flow cytometry of surface β2-GPI on 293T; HLA-DRB1*07:01.
The target is the same in experiment [24]. The experiment is described as follows: flow cytometry of surface β2-GPI on 293T; HLA-DRB1*04:06.
The target is the same in experiment [25]. As to the kind of experiment: flow cytometry of surface β2-GPI on 293T; HLA-DRB1*04:02.

T1 sequence (P01266 20-2768): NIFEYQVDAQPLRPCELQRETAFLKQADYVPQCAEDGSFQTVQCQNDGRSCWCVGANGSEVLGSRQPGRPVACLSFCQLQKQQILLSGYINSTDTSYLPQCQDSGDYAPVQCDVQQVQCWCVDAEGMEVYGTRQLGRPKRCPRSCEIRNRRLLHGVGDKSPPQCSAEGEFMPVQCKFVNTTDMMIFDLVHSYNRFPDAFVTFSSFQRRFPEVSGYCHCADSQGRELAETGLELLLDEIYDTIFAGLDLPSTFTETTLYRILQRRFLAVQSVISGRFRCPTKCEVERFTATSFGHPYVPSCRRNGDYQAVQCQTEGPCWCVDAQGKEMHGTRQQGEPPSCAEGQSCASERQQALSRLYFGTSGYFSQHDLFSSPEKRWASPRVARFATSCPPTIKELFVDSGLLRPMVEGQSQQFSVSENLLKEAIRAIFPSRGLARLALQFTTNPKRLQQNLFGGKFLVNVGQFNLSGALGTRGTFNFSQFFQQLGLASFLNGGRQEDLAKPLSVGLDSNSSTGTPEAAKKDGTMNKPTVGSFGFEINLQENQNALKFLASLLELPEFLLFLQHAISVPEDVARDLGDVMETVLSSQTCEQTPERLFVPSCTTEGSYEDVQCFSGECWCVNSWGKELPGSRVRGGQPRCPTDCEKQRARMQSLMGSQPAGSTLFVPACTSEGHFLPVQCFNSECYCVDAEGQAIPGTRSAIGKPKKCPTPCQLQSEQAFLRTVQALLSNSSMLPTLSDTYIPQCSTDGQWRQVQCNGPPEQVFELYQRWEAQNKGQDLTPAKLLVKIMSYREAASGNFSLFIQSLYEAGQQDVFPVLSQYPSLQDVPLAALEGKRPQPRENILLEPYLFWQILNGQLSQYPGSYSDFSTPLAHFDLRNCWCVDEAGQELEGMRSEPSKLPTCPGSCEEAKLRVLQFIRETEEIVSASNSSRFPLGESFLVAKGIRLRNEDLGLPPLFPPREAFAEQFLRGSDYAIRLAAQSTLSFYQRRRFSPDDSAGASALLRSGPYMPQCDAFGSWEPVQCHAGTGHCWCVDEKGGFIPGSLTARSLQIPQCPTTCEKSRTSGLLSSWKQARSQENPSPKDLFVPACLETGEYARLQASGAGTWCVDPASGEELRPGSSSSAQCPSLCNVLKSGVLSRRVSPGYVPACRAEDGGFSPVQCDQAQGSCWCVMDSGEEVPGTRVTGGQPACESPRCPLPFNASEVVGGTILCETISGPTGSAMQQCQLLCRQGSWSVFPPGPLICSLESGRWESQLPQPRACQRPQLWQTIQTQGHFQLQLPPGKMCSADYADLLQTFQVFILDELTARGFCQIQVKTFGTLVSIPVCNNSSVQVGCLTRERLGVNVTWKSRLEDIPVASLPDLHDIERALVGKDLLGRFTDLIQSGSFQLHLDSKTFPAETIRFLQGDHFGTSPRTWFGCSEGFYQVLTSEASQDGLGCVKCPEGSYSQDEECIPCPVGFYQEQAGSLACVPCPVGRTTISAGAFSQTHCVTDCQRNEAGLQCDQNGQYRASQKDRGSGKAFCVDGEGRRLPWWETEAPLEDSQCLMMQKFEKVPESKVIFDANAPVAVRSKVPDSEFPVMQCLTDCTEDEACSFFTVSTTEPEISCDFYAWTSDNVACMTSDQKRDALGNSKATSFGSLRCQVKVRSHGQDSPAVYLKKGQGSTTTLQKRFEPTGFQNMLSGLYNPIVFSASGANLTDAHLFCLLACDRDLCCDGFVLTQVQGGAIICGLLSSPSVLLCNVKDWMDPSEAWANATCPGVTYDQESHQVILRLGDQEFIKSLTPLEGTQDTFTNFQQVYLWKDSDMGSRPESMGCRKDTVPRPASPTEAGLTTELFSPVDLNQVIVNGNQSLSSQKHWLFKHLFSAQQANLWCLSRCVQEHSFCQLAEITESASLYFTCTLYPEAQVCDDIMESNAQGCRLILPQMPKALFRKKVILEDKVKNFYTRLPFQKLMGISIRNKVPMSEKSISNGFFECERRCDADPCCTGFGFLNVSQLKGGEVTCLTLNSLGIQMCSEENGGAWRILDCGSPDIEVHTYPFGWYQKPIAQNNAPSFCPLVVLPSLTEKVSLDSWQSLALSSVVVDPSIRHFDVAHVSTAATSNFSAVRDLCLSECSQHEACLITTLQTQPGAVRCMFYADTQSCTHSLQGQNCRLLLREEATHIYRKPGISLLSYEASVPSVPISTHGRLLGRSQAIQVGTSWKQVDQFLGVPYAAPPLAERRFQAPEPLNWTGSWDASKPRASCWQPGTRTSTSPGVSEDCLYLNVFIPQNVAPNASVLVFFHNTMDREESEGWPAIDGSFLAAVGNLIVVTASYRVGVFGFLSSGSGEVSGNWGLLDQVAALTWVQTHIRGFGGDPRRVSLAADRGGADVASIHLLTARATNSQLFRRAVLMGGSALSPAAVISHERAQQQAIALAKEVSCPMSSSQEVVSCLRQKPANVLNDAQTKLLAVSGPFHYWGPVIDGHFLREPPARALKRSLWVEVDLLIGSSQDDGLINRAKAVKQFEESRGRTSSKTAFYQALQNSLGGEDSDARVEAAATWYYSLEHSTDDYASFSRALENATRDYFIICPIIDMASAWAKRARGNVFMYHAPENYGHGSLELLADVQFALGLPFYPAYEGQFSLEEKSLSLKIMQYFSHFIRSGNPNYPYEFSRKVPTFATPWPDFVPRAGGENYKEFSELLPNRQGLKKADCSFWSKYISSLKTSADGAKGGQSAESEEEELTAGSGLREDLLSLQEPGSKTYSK

B1: HLA-DR (HLA-DRA*01:01/HLA-DRB1*01:03) (other, human)
MHC II alpha: not shown
MHC II beta: not shown
notes: whole, on cells
Take B1: the binding result in [1] and in experiment [2] was “binds” in each case.

B2: HLA-DR (HLA-DRA*01:01/HLA-DRB1*13:02) (other, human)
MHC II alpha: not shown
MHC II beta: not shown
notes: whole, on cells
For the molecule B2, the binding result in [3] was “binds”.

B3: HLA-DR (HLA-DRA*01:01/HLA-DRB1*04:01) (other, human)
MHC II alpha: not shown
MHC II beta: not shown
notes: whole, on cells
Regarding B3, the binding result in [4] is given as “binds”.

B4: HLA-DR (HLA-DRA*01:01/HLA-DRB1*09:01) (other, human)
MHC II alpha: not shown
MHC II beta: not shown
notes: whole, on cells
As to B4, the binding result in experiment [5] is “binds”.

B5: HLA-DR (HLA-DRA*01:01/HLA-DRB1*14:01) (other, human)
MHC II alpha: not shown
MHC II beta: not shown
notes: whole, on cells
As for B5, the binding result in experiment [6] is “binds”.

B6: HLA-DR (HLA-DRA*01:01/HLA-DRB1*14:02) (other, human)
MHC II alpha: not shown
MHC II beta: not shown
notes: whole, on cells
B6: in [7], the binding result is “binds”.

B7: HLA-DR (HLA-DRA*01:01/HLA-DRB1*01:01) (other, human)
MHC II alpha: not shown
MHC II beta: not shown
notes: whole, on cells; also called HLA-DR1; HLA-DR0101
As to B7, the binding result in experiment [8] was “binds”.

B8: HLA-DR (HLA-DRA*01:01/HLA-DRB1*04:04) (other, human)
MHC II alpha: not shown
MHC II beta: not shown
notes: whole, on cells; also called HLA-DR4; HLA-DR0404
For B8, the binding result in [9] is “binds”.

B9: HLA-DR (HLA-DRA*01:01/HLA-DRB1*13:03) (other, human)
MHC II alpha: not shown
MHC II beta: not shown
notes: whole, on cells
In the case of B9, the binding result in experiment [10] is listed as “binds”.

B10: HLA-DR (HLA-DRA*01:01/HLA-DRB1*14:06) (other, human)
MHC II alpha: not shown
MHC II beta: not shown
notes: whole, on cells
Regarding B10, in experiment [11], the binding result is given as “binds”.

B11: HLA-DR (HLA-DRA*01:01/HLA-DRB1*08:01) (other, human)
MHC II alpha: not shown
MHC II beta: not shown
notes: whole, on cells
Consider B11, for which, in experiment [12], the binding result is “binds”.

B12: HLA-DR (HLA-DRA*01:01/HLA-DRB1*11:01) (other, human)
MHC II alpha: not shown
MHC II beta: not shown
notes: whole, on cells
For the molecule B12, the binding result in [13] is recorded as “binds”.

B13: HLA-DR (HLA-DRA*01:01/HLA-DRB1*03:01) (other, human)
MHC II alpha: not shown
MHC II beta: not shown
notes: whole, on cells; also called HLA-DR3
In the case of B13, the binding result in experiment [14] is “binds”.

B14: HLA-DR (HLA-DRA*01:01/HLA-DRB1*12:01) (other, human)
MHC II alpha: not shown
MHC II beta: not shown
notes: whole, on cells
Turning to B14, in experiment [15], the binding result is “binds”.

B15: HLA-DR (HLA-DRA*01:01/HLA-DRB1*08:03) (other, human)
MHC II alpha: not shown
MHC II beta: not shown
notes: whole, on cells
For B15, in experiment [16], the binding result was “binds”.

B16: HLA-DR (HLA-DRA*01:01/HLA-DRB1*14:03) (other, human)
MHC II alpha: not shown
MHC II beta: not shown
notes: whole, on cells
Consider B16, for which the binding result in [17] and in experiment [18] was “binds” each time.

B17: HLA-DR (HLA-DRA*01:01/HLA-DRB1*04:03) (other, human)
MHC II alpha: not shown
MHC II beta: not shown
notes: whole, on cells
Regarding B17, the binding result in [19] was “binds”.

B18: HLA-DR (HLA-DRA*01:01/HLA-DRB1*10:01) (other, human)
MHC II alpha: not shown
MHC II beta: not shown
notes: whole, on cells
B18: in experiment [20], the binding result was “binds”.

B19: HLA-DR (HLA-DRA*01:01/HLA-DRB1*04:05) (other, human)
MHC II alpha: not shown
MHC II beta: not shown
notes: whole, on cells
Take B19: in experiment [21], the binding result is “binds”.

B20: HLA-DR (HLA-DRA*01:01/HLA-DRB1*13:01) (other, human)
MHC II alpha: not shown
MHC II beta: not shown
notes: whole, on cells
On to B20, for which, in experiment [22], the binding result is on record as “binds”.

B21: HLA-DR (HLA-DRA*01:01/HLA-DRB1*07:01) (other, human)
MHC II alpha: not shown
MHC II beta: not shown
notes: whole, on cells; also called HLA-DR7; APS susceptible HLA-DR7
Turning to B21, the binding result in experiment [23] is given as “binds”.

B22: HLA-DR (HLA-DRA*01:01/HLA-DRB1*04:06) (other, human)
MHC II alpha: not shown
MHC II beta: not shown
notes: whole, on cells
With B22, in experiment [24], the binding result is reported as “binds”.

B23: HLA-DR (HLA-DRA*01:01/HLA-DRB1*04:02) (other, human)
MHC II alpha: not shown
MHC II beta: not shown
notes: whole, on cells
Turning to B23, the binding result in [25] is “binds”.
